Experimental data as given in patent US20180244758A1 (MAPP BIOPHARMACEUTICAL, published 2018).
Positions count from the first letter of the chain named.

T1: GP of authentic (wild-type) SUDV (Sudan virus (SUDV), UniProt Q66814 33-676)
T1 sequence: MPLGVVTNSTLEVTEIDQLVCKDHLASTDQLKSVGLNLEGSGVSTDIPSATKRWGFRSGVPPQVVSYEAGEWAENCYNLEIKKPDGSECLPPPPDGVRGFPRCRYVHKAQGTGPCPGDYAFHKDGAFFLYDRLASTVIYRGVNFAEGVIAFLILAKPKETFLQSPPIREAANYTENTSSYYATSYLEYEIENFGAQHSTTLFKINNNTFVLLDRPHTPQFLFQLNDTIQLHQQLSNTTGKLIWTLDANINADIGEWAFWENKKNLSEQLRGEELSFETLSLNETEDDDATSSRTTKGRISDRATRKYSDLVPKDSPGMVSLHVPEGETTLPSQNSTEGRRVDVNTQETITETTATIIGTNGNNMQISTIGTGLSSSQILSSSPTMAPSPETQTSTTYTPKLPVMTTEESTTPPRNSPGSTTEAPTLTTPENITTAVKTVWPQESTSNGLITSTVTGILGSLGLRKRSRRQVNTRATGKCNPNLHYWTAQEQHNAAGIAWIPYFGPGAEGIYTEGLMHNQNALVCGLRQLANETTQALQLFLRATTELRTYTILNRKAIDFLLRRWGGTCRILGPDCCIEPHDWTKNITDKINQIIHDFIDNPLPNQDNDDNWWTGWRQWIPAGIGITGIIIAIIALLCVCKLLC

T2: TAFV GP on VSV pseudotype particles (Tai Forest virus (TAFV), UniProt Q66810 33-676)
T2 sequence: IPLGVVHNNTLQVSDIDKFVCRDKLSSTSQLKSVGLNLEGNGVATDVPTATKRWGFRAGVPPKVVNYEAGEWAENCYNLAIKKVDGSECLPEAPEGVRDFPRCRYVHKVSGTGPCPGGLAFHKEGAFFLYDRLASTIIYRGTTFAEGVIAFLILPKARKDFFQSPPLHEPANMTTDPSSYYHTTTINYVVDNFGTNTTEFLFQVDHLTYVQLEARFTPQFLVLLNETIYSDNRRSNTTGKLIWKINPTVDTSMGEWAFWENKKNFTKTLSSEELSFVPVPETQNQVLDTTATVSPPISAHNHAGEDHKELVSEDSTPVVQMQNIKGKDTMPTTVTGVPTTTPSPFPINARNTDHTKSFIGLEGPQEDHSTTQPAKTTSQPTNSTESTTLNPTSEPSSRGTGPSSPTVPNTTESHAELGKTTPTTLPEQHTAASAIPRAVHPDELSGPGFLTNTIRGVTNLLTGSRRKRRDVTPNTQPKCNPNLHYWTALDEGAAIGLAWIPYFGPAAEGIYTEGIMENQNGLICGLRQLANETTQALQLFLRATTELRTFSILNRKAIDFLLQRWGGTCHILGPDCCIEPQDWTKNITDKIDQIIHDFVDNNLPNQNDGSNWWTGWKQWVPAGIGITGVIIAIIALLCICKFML

T3: RESTV GP on rVSV particles (Reston virus (RESTV), UniProt Q66799 34-677)
T3 sequence: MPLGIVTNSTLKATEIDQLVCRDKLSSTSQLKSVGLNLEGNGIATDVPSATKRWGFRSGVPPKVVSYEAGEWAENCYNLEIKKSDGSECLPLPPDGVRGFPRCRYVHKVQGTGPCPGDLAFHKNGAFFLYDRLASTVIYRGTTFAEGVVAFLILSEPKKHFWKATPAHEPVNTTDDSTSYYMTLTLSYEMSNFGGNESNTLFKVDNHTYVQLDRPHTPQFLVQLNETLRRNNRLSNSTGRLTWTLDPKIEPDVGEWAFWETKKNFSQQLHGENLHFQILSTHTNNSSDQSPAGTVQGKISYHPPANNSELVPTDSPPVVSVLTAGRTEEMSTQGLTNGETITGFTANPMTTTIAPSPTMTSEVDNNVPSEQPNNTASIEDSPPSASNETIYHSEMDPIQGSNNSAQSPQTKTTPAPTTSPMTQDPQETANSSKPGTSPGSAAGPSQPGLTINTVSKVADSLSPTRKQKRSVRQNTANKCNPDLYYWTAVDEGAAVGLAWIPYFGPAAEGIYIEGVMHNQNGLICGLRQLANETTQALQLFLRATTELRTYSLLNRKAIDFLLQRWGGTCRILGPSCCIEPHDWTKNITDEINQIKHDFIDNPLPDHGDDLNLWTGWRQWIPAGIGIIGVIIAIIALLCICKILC

T4: GP of authentic (wild-type) EBOV (Ebola virus (EBOV), UniProt P87666 33-676)
T4 sequence: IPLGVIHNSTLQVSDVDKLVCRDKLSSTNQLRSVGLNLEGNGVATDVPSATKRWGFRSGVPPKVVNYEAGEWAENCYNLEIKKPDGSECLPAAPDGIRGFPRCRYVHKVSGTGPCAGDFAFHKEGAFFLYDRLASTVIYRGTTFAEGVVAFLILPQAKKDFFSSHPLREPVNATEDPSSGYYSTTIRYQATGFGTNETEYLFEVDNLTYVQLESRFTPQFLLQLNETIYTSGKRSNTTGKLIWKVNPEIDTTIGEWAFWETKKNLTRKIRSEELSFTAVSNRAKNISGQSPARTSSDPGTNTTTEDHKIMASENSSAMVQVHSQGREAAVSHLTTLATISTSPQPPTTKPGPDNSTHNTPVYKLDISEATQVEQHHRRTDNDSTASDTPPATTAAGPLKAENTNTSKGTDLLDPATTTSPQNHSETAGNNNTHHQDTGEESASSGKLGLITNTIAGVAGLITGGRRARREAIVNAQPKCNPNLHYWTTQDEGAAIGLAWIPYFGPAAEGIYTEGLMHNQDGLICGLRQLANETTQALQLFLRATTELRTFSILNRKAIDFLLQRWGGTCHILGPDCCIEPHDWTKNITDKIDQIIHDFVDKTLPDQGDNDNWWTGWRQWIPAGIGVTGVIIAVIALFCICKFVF

B1: mAb PE-16 (antibody, V domains shown)
VH: QVQLVQSGAEVTKPGASVKVSCKASGYTFTTYYMHWVRQAPGQGLEWVGIINPSGGITRYAQKFQGRVTLTRDTSTTTVYMELSSLRSEDTAVYYCARDRYPVLFATDYGMDVWGQGTTVTVSS
VL: DIVMTQSPATLSLSPGERATLSCRASQSVSGYLAWYQQKPGQAPRLLIYDASNRATGIPARFSGSGSGTDFTLTISSLEPEDFAVYYCQQRSIWPPGVTFGGGTKVEIK
B2: mAb PE-87 (antibody, V domains shown)
VH: QVQLVQSGVTLVQPGGSLRVSCAASGFTFSSYAMSWVRQAPGKGLEWVSAISGLGGSTYYADSVKGRFTISRDNSKNTLYLQMNSLRAEDTAVYYCAKDHRVWAAGYHFDYWGQGALVTVSS
VL: DIVLTQSPSTLSASVGDRVTITCRASQSISSWLAWYQQKPGEAPKLLISDASSLESGVPSRFSGSGSGTEFTLTISSLQPDDFATYYCQQYYSSPTFGGGTKVEIK
B3: mAb PE-24 (antibody, V domains shown)
VH: EVQLVESGGGLVQPGGSLRLSCAASGFTFSSYAMSWVRQAPGKGLEWVSEISGLGGSTYYADSAKGRFTISRDNSKSTLYLQMNSLRAEDTAVYYCAKDHRVWAPGYYFDHWGQGTLVTVSS
VL: B2 VL with E42K, S49Y, Y87F, Y92N, S93R
B4: mAb PE-47 (antibody, V domains shown)
VH: EVQLVESGGGLVKPGGSLRLSCAASGFTFSNAWMSWVRQAPGEGLEWVGRIKSKTDGGTIDYAAPVKGRFTISRDDSKNTVYLQMTSLKTEDTAVYYCTTYTEDMQYFDWLLRGGETFDYWGQGTLVTVSS
VL: DIQMTQSPSSLSASVGDRVTITCRASQYISTYLNWYQQKPGKAPKLLIYAAYNLQSGVPSRFSGSGSGTDFTLTISSLQPEDFATYYCQQSYSTPGRYTFGQGTKVEIK
B5: mAb PE-05 (antibody, V domains shown)
VH: QVQLQESGGGLVKPGRSLRLSCTASGFTFGDYAMSWFRQAPGKGLEWVGFLRSKAYGGTAEYAASVKGRFTMSRDDSKSIAYLQMNSLKTEDTAVYFCTRDGFRGSSWGYSYYGMDVWGQGTTVTVSS
VL: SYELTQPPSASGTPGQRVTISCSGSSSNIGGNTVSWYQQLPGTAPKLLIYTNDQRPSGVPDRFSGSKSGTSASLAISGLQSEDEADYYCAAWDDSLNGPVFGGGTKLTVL

molecular target: GP of authentic (wild-type) BDBV (Bundibugyo virus (BDBV)); experiment: cell-based or functional assay

Binder	Microneut. WT IC50 [nM]
B1	0.2
B2	0.4
B3	0.3
B4	0.5

molecular target: T1, GP of authentic (wild-type) SUDV; experiment: cell-based or functional assay

Binder	Microneut. WT IC50 [nM]
B2	0.3
B3	0.4
B4	< 0.1

molecular target: T2, TAFV GP on VSV pseudotype particles; experiment: cell-based or functional assay

Binder	Neutralization (VSV-GP IC50, nM) [nM]
B1	4.8
B5	0.8
B2	1
B3	1.5
B4	6.1

molecular target: T3, RESTV GP on rVSV particles; experiment: cell-based or functional assay

Binder	Neutralization (VSV-GP IC50, nM) [nM]
B5	22
B2	0.2
B3	0.2

molecular target: T4, GP of authentic (wild-type) EBOV; experiment: cell-based or functional assay

Binder	Microneut. WT IC50 [nM]	Neut. WT EBOV PRNT50 [nM]
B1	0.05	< 0.02
B5	7.7	4
B2	0.3	< 0.05
B3	1	0.4
B4	0.7	

molecular target: BDBV GP on rVSV particles (Bundibugyo virus (BDBV)); experiment: cell-based or functional assay

Binder	Neutralization (VSV-GP IC50, nM) [nM]
B1	0.6
B5	3.7
B2	0.5
B3	0.8
B4	0.4
